Experimental findings from paper PMC8266576, “TnpAREP and REP sequences dissemination in bacterial genomes: REP recognition determinants” are described below.

In this data set the target is T1, TnpAREP Ec (TnpAEc-His6) (Escherichia coli, UniProt Q47152 1-165).
T1 sequence: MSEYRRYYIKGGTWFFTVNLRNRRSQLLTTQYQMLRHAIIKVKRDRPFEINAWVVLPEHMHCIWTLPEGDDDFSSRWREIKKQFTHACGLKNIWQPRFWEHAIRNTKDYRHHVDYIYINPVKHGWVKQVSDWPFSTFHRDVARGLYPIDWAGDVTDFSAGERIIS
Nature of the data set: EMSA; 2 and 4 uM protein, no divalent metal; EMSA: 12.5 mM Tris pH 7.5, 120 mM NaCl, 1 mM DTT, 20 ug/ml BSA, 0.5 ug poly-dIdC, 7% glycerol, no divalent metal; 0.02 uM labelled + 0.5 uM unlabelled oligonucleotide, 45 min 37 C (standard reaction); 8% native gel (TAE, 7% glycerol) at 4 C. Conditions: protein: recombinant, tags: His6 (C-terminal by name), chain copies: 2, label: 5'-32P. Background: Mobility shift assays separate free from complexed probe on a gel.

B1: B268i (61) wt y REPEc (structured_DNA)
DNA: GTAGGACGGATAAGGCGTTTACGCCGCATCCGGCAGTTGTACGCAGGTGCCTGATGCGACG
As to B1, the binding result (hairpin with bulge) is “binds”.

B2: B2689 mut loop (complement of loop) (structured_DNA)
DNA: GTAGGACGGATAAGGCGTAAACGCCGCATCCGGCAGTTGTACGCAGGTGCCTGATGCGACG
B2: under “hairpin with bulge”, the binding result is “binds”.

B3: B268i (61) GTAC (structured_DNA)
DNA: GTACGACGGATAAGGCGTTTACGCCGCATCCGGCAGTTGTACGCAGGTGCCTGATGCGACG
For B3, the binding result (hairpin with bulge) was “no binding”.

B4: B268i (61) GTGG (structured_DNA)
DNA: GTGGGACGGATAAGGCGTTTACGCCGCATCCGGCAGTTGTACGCAGGTGCCTGATGCGACG
On to B4, for which, under “hairpin with bulge”, the binding result was “no binding”.

B5: B2688 del upper stem and loop (structured_DNA)
DNA: GTAGGACGGATAAGCATCCGGCAGTTGTACGCAGGTGCCTGATGCGACG
As for B5, the binding result was “no binding”.
